Experimental findings from patent US20200140562A1 are described below.

Read-outs that look alike come from different tables or passages of the source.

The target of experiment [1] is human OX40 on cells (CHO-hOX40, 293HEK-hOX40, Jurkat-hOX40, activated primary CD4+ T cells) (human) (UniProt P43489). Kind of experiment: flow cytometry, activated CD4+ T cells, donor 1, 100 nM. A general note: In flow cytometry, cells or beads pass a laser one at a time.
Experiment [2] has the same target. As to the kind of experiment: flow cytometry, CHO-hOX40, […].
Experiment [3] shares this target. As to the kind of experiment: flow cytometry, 293HEK-hOX40, 40 nM.
For experiment [4] the target is unchanged. As to the kind of experiment: flow cytometry, CHO-hOX40, 0.78125 nM.
Experiment [5] shares this target. Kind of experiment: flow cytometry, CHO-hOX40, 25 nM.
The target is the same in experiment [6]. As to the kind of experiment: flow cytometry, CHO-hOX40, 3.125 nM.
For experiment [7] the target is unchanged. Kind of experiment: flow cytometry, CHO-hOX40, 50 nM.
Experiment [8] has the same target. Kind of experiment: cell-based or functional assay.
The target is the same in experiment [9]. As to the kind of experiment: flow cytometry, CHO-hOX40, 12.5 nM.
The target in experiment [10] is human OX40_Fc (R&D Systems) (human) (UniProt P43489). As to the kind of experiment: BLI, IgG1 on tip, hOX40-Fc 50 nM, avid. In general terms: Biolayer interferometry detects binding as a change in optical thickness at a sensor tip.
The target of experiment [11] is human OX40 on cells (CHO-hOX40, 293HEK-hOX40, Jurkat-hOX40, activated primary CD4+ T cells) (human) (UniProt P43489). As to the kind of experiment: flow cytometry, CHO-hOX40, 0.024414063 nM.
For experiment [12] the target is unchanged. Kind of experiment: flow cytometry, MFI on CHO-hOX40 over wild-type CHO.
The target is the same in experiment [13]. Kind of experiment: flow cytometry, CHO-hOX40, 0.09765625 nM.
The target of experiment [14] is cyno OX40_Fc (Acro Biosystems) (cyno). As to the kind of experiment: BLI, IgG1 on tip, cyno OX40-Fc 100 nM, avid.
The target of experiment [15] is human OX40 on cells (CHO-hOX40, 293HEK-hOX40, Jurkat-hOX40, activated primary CD4+ T cells) (human) (UniProt P43489). Kind of experiment: flow cytometry, 293HEK-hOX40, 200 nM.
For experiment [16] the target is unchanged. As to the kind of experiment: flow cytometry, CHO-hOX40, 0.390625 nM.
In experiment [17] the target is human OX40_Fc (R&D Systems) (human) (UniProt P43489). Kind of experiment: BLI, IgG1 on tip, hOX40-Fc 50 nM, avid. This is another data set of the same source.
Experiment [18] concerns the target human OX40 on cells (CHO-hOX40, 293HEK-hOX40, Jurkat-hOX40, activated primary CD4+ T cells) (human) (UniProt P43489). As to the kind of experiment: flow cytometry, activated CD4+ T cells, donor 2, 100 nM.
The target is the same in experiment [19]. As to the kind of experiment: flow cytometry, MFI on CHO-hOX40 over wild-type CHO. This is another data set of the same source.
Experiment [20] shares this target. As to the kind of experiment: flow cytometry, CHO-hOX40, 100 nM.
Experiment [21] has the same target. Kind of experiment: flow cytometry, 293HEK-hOX40, 1.6 nM.
The target is the same in experiment [22]. As to the kind of experiment: flow cytometry, CHO-hOX40, 100 nM blocker, competitor OX40L-hFc-fluorescein.
For experiment [23] the target is unchanged. As to the kind of experiment: flow cytometry, CHO-hOX40, 100 nM. The source holds these as a separate data set.
The target is the same in experiment [24]. Kind of experiment: flow cytometry, CHO-hOX40, 0.1953125 nM.
Experiment [25] deals with cyno OX40_Fc (Acro Biosystems) (cyno). Kind of experiment: BLI, IgG1 on tip, cyno OX40-Fc 100 nM, avid. This is another data set of the same source.
Experiment [26] deals with human OX40 on cells (CHO-hOX40, 293HEK-hOX40, Jurkat-hOX40, activated primary CD4+ T cells) (human) (UniProt P43489). As to the kind of experiment: flow cytometry, 293HEK-hOX40, 8 nM.
The target is the same in experiment [27]. As to the kind of experiment: flow cytometry, CHO-hOX40, 6.25 nM.
Experiment [28] has the same target. As to the kind of experiment: flow cytometry, CHO-hOX40.
Experiment [29] shares this target. Kind of experiment: flow cytometry, CHO-hOX40, 0.048828125 nM.
Experiment [30] has the same target. Kind of experiment: flow cytometry, CHO-hOX40, 200 nM.

Sequence of human OX40 on cells (CHO-hOX40, 293HEK-hOX40, Jurkat-hOX40, activated primary CD4+ T cells) (human) (P43489 29-277): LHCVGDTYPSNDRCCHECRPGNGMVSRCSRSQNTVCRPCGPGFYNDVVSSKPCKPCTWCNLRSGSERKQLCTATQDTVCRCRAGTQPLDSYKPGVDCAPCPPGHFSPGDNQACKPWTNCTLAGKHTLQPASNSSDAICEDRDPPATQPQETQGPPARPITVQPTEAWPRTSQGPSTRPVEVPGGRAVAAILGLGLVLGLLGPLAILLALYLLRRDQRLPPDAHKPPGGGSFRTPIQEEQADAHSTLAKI
Sequence of human OX40_Fc (R&D Systems) (human) (P43489 29-216): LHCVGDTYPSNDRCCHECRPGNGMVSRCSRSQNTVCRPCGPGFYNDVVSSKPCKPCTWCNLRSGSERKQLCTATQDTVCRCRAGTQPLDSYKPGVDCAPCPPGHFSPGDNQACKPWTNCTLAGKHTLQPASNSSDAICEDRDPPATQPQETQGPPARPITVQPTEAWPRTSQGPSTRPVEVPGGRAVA

B1: Hu106-222, humanized IgG1 OX40 antibody (antibody, from another filing, V domains shown)
VH: QVQLVQSGSELKKPGASVKVSCKASGYTFTDYSMHWVRQAPGQGLKWMGWINTETGEPTYADDFKGRFVFSLDTSVSTAYLQISSLKAEDTAVYYCANPYYDYVSYYAMDYWGQGTTVTVSS
VL: DIQMTQSPSSLSASVGDRVTITCKASQDVSTAVAWYQQKPGKAPKLLIYSASYLYTGVPSRFSGSGSGTDFTFTISSLQPEDIATYYCQQHYSTPRTFGQGTKLEIK
As a reminder, the Kd is the free concentration of one partner at which half of the binding sites on the other are occupied at equilibrium, for simple one-to-one binding. Higher therefore signals lower affinity. Usually EC50 stands for the concentration that produces a half-maximal response. B1: the MFI in experiment [1] is 115000 MFI; in experiment [2], 1.25e+06 MFI; in experiment [3], 1.8e+06 MFI; in experiment [4], 600000 MFI; in experiment [5] it was 2.24e+06 MFI; in experiment [6], 1.77e+06 MFI. Also, the MFI in experiment [7] was determined as 2.34e+06 MFI; in experiment [9] it was 2.18e+06 MFI; in experiment [11], 26700 MFI; in experiment [13], 77600 MFI; in [15], 1.79e+06 MFI; in experiment [16] it was 474000 MFI. Moreover, the MFI was 136000 MFI in experiment [18]; 2.5e+06 MFI in experiment [20]; 650000 MFI in experiment [21]; 181000 MFI in experiment [24]; 1.74e+06 MFI in experiment [26]; 2.02e+06 MFI in experiment [27]. For the same molecule, the MFI in experiment [29] was 49800 MFI; in experiment [30], 2.64e+06 MFI. This molecule also showed an NFkB-Luc fold change in Jurkat stimulated by PHA+ anti-CD28 (fold over IgG4 control) in experiment [8] of 1.93. The NFkB-Luc fold change in Jurkat stimulated by anti-CD3+ anti-CD28 (fold over IgG4 control) in experiment [8] turned out to be 1.77. Besides, the Kd in experiment [10] came out at 0.25 nM; in experiment [14], 4.96 nM; in [17] it was 0.475 nM; in experiment [25], 5.17 nM. Also, the results for the Fold difference in experiment [12] and in experiment [19] were 1700 fold and 2630 fold, respectively. The CHO-OX40 binding intensity (MFI) in [20] came out at 164000 MFI; in experiment [23], 183000 MFI. In experiment [22], this molecule displayed an MFI of OX40L signal on CHO-OX40 cells of 25800 MFI. For the same molecule, in experiment [28], the 50% effective concentration (EC50) is 1.94 nM.

B2: IgG2 control (antibody, V domains shown)
VH: QLQLQKSGPGLVKPSETLSLTCTVSGFTFSNYAMGWIRQPPGKGLEWIGAISGSGGSTYYADSVKGRVTISVDTSKNQFSLKLSSVTAADTAVYYCARGGPGWYAADVWGQGTLVTVSS
VL: EIVLTQSPATLSLSPGERATLSCRASQSISSYLNWYQQKPGQAPRLLIYAASSLQSGIPARFSGSGSGTDFTLTISSLEPEDFAVYYCQQADLPAFAFGGGTKVEIKR
With B2, the MFI in [2] amounted to 2900 MFI; in experiment [4], 2250 MFI; in experiment [5], 22100 MFI; in [6], 4150 MFI; in experiment [7], 44100 MFI; in experiment [9] it was 11900 MFI. For the same molecule, the MFI in [11] worked out at 1510 MFI; in experiment [13], 1590 MFI; in experiment [16], 1890 MFI; in [20] it was 93000 MFI; in [24], 1680 MFI; in [27], 6400 MFI. The MFI in experiment [29] came to 1560 MFI; in [30] it was 216000 MFI.
